According to paper PMC6815173 (Proceedings of the National Academy of Sciences of the …, 2019):

B2: full-length human αE-catenin (natural protein)
chain: GMTAVHAGNINFKWDPKSLEIRTLAVERLLEPLVTQVTTLVNTNSKGPSNKKRGRSKKAHVLAASVEQATENFLEKGDKIAKESQFLKEELVAAVEDVRKQGDLMKAAAGEFADDPCSSVKRGNMVRAARALLSAVTRLLILADMADVYKLLVQLKVVEDGILKLRNAGNEQDLGIQYKALKPEVDKLNIMAAKRQQELKDVGHRDQMAAARGILQKNVPILYTASQACLQHPDVAAYKANRDLIYKQLQQAVTGISNAAQATASDDASQHQGGGGGELAYALNNFDKQIIVDPLSFSEERFRPSLEERLESIISGAALMADSSCTRDDRRERIVAECNAVRQALQDLLSEYMGNAGRKERSDALNSAIDKMTKKTRDLRRQLRKAVMDHVSDSFLETNVPLLVLIEAAKNGNEKEVKEYAQVFREHANKLIEVANLACSISNNEEGVKLVRMSASQLEALCPQVINAALALAAKPQSKLAQENMDLFKEQWEKQVRVLTDAVDDITSIDDFLAVSENHILEDVNKCVIALQEKDVDGLDRTAGAIRGRAARVIHVVTSEMDNYEPGVYTEKVLEATKLLSNTVMPRFTEQVEAAVEALSSDPAQPMDENEFIDASRLVYDGIRDIRKAVLMIRTPEELDDSDFETEDFDVRSRTSVQTEDDQLIAGQSARAIMAQLPQEQKAKIAEQVASFQEEKSKLDAEVSKWDDSGNDIIVLAKQMCMIMMEMTDFTRGKGPLKNTSDVISAAKKIAEAGSRMDKLGRTIADHCPDSACKQDLLAYLQRIALYCHQLNICSKVKAEVQNLGGELVVSGVDSAMSLIQAAKNLMNAVVQTVKASYVASTKYQKSQGMASLNLPAVSWKMKAPEKKPLVKREKQDETQTKIKRASQKKHVNPVQALSEFKAMDSI
B4: full-length human β-catenin (natural protein)
chain: GMATQADLMELDMAMEPDRKAAVSHWQQQSYLDSGIHSGATTTAPSLSGKGNPEEEDVDTSQVLYEWEQGFSQSFTQEQVADIDGQYAMTRAQRVRAAMFPETLDEGMQIPSTQFDAAHPTNVQRLAEPSQMLKHAVVNLINYQDDAELATRAIPELTKLLNDEDQVVVNKAAVMVHQLSKKEASRHAIMRSPQMVSAIVRTMQNTNDVETARCTAGTLHNLSHHREGLLAIFKSGGIPALVKMLGSPVDSVLFYAITTLHNLLLHQEGAKMAVRLAGGLQKMVALLNKTNVKFLAITTDCLQILAYGNQESKLIILASGGPQALVNIMRTYTYEKLLWTTSRVLKVLSVCSSNKPAIVEAGGMQALGLHLTDPSQRLVQNCLWTLRNLSDAATKQEGMEGLLGTLVQLLGSDDINVVTCAAGILSNLTCNNYKNKMMVCQVGGIEALVRTVLRAGDREDITEPAICALRHLTSRHQEAEMAQNAVRLHYGLPVVVKLLHPPSHWPLIKATVGLIRNLALCPANHAPLREQGAIPRLVQLLVRAHQDTQRRTSMGGTQQQFVEGVRMEEIVEGCTGALHILARDVHNRIVIRGLNTIPLFVQLLYSPIENIQRVAAGVLCELAQDKEAAEAIEAEGATAPLTELLHSRNEGVATYAAAVLFRMSEDKPQDYKKRLSVELTSSLFRTEPMAWNETADLGLDIGAQGEPLGYRQDDPSYRSFHSGGYGQDALGMDPMMEHEMGGHHPGADYPVDGLPDLGHAQDLMDGLPPGDSNQLAWFDTDL

Tests used:
[1] = target: B4; test: SPR
[2] = target: β-catenin•epithelial cadherin cytoplasmic domain complex (BE) (human, UniProt P35222;P12830); test: SPR
[3] = target: B2; test: SPR
[4] = target: B2; test: contrast variation small-angle neutron scattering

B1: entire cytoplasmic domain of human E-cadherin (EcadCT; residues 731 to 882) (domain or fragment)
chain: not shown
Kd [1]: 104 ± 3.2 nM

B2
Kd [2]: 119 ± 6.3 nM | koff [2]: 0.0004 s⁻¹

B3: complex of the β-catenin truncation mutant that lacks the N-terminal 107 residues with EcadCT (B_(N-107)E) (complex)
chain 1: QIPSTQFDAAHPTNVQRLAEPSQMLKHAVVNLINYQDDAELATRAIPELTKLLNDEDQVVVNKAAVMVHQLSKKEASRHAIMRSPQMVSAIVRTMQNTNDVETARCTAGTLHNLSHHREGLLAIFKSGGIPALVKMLGSPVDSVLFYAITTLHNLLLHQEGAKMAVRLAGGLQKMVALLNKTNVKFLAITTDCLQILAYGNQESKLIILASGGPQALVNIMRTYTYEKLLWTTSRVLKVLSVCSSNKPAIVEAGGMQALGLHLTDPSQRLVQNCLWTLRNLSDAATKQEGMEGLLGTLVQLLGSDDINVVTCAAGILSNLTCNNYKNKMMVCQVGGIEALVRTVLRAGDREDITEPAICALRHLTSRHQEAEMAQNAVRLHYGLPVVVKLLHPPSHWPLIKATVGLIRNLALCPANHAPLREQGAIPRLVQLLVRAHQDTQRRTSMGGTQQQFVEGVRMEEIVEGCTGALHILARDVHNRIVIRGLNTIPLFVQLLYSPIENIQRVAAGVLCELAQDKEAAEAIEAEGATAPLTELLHSRNEGVATYAAAVLFRMSEDKPQDYKKRLSVELTSSLFRTEPMAWNETADLGLDIGAQGEPLGYRQDDPSYRSFHSGGYGQDALGMDPMMEHEMGGHHPGADYPVDGLPDLGHAQDLMDGLPPGDSNQLAWFDTDL
chain 2: not shown
Kd [3]: 12600 ± 758 nM | koff [3]: 0.002 s⁻¹

B4
binding result [4]: binds
